For 49 molecules, peptide exchange yield results are on record in patent US20170189510A1.

The test deals with HLA-A*24 (human). The test is described as follows: UV-ligand exchange, anti-b2m ELISA. Background: ELISA stands for enzyme-linked immunosorbent assay.

On to IFPQFLYQF [peptide SEQ ID No 186 …], for which the peptide exchange yield was over 75%. Molecule VFQNFPLLF [peptide SEQ ID No 184 …] registered a peptide exchange yield of over 75%. The same measure for EYQENFLSF [peptide SEQ ID No 206 …]: 50 to 75%; for EYINQGDLHEF [peptide SEQ ID No 275 …]: 50 to 75%; for YYVYIMNHL [peptide SEQ ID No 225 …]: 50 to 75%. TYIESASEL [peptide SEQ ID No 279 …]: the peptide exchange yield was in the range of 50 to 75%.

In turn, IFIEVFSHF [peptide SEQ ID No 178 …] gave a peptide exchange yield of 50 to 75%. For IYQLDTASI [peptide SEQ ID No 182 …] the value was 50 to 75%. The same measure for VYGFQWRHF [peptide SEQ ID No 276 …]: over 75%; for KFVDSTFYL [peptide SEQ ID No 282 …]: over 75%; for QYLQDAYSF [peptide SEQ ID No 272 …]: over 75%. RYISDQLFTNF [peptide SEQ ID No 278 …]: the peptide exchange yield was over 75%.

VFKASKITF [peptide SEQ ID No 191 …] displayed a peptide exchange yield of 50 to 75%. RYFKGLVF [peptide SEQ ID No 188 RYFKGLVF] had a peptide exchange yield of 50 to 75%. Molecule FYSRLLQKF [peptide SEQ ID No 203 …] displayed a peptide exchange yield of 50 to 75%.

As for FFPPTRQMGLLF [peptide SEQ ID No 217 …], the peptide exchange yield was over 75%. The same measure for EFGSLHLEFL [peptide SEQ ID No 194 …]: under 20%; for TYLRDQHFL [peptide SEQ ID No 187 …]: over 75%. As to MYDSYWRQF [peptide SEQ ID No 179 …], the peptide exchange yield was over 75%. For RYSTGLAGNLL [peptide SEQ ID No 221 …] the value was 50 to 75%; for VYPWLGALL [peptide SEQ ID No 177 …], over 75%. Consider VYRDETGELF [peptide SEQ ID No 226 …], for which the peptide exchange yield lay within 50 to 75%. The same measure for EYPLVINTL [peptide SEQ ID No 219 …]: 50 to 75%; for IYTMIYRNL [peptide SEQ ID No 210 …]: over 75%; for QYSSVFKSL [peptide SEQ ID No 216 …]: over 75%. With YFDKVVTL [peptide SEQ ID No 215 YFDKVVTL], the peptide exchange yield lay in the range of 20 to 49%.

LYLKLWNLI [peptide SEQ ID No 214 …] returned a peptide exchange yield of 50 to 75%. Consider LYLDKATLI [peptide SEQ ID No 198 …], for which the peptide exchange yield fell in the range of 50 to 75%. In turn, IYKVGAPTI [peptide SEQ ID No 185 …] returned a peptide exchange yield of 50 to 75%. The same measure for VFTSTARAF [peptide SEQ ID No 183 …]: 50 to 75%; for LYHDIFSRL [peptide SEQ ID No 271 …]: over 75%. As for TYTTVPRVAF [peptide SEQ ID No 172 …], the peptide exchange yield is over 75%. The same measure for RFHPTPLLL [peptide SEQ ID No 193 …]: over 75%; for TYTQDFNKF [peptide SEQ ID No 208 …]: 50 to 75%; for YYLEVGKTLI [peptide SEQ ID No 211 …]: over 75%. For LYLDIINLF [peptide SEQ ID No 181 …] the value was over 75%; for AYLHSHALI [peptide SEQ ID No 274 …], over 75%. For QYLENLEKL [peptide SEQ ID No 224 …] the value was 50 to 75%; for KYIPYKYVI [peptide SEQ ID No 223 …], 50 to 75%; for IFLDYEAGTLSF [peptide SEQ ID No 227 …], over 75%. Turning to KYTSWYVAL [peptide SEQ ID No 228 …], the peptide exchange yield is over 75%. The same measure for WYVNGVNYF [peptide SEQ ID No 189 …]: 20 to 49%; for IYDDSFIRPVTF [peptide SEQ ID No 180 …]: 50 to 75%. The same measure for VHIPEVYLI [peptide SEQ ID No 205 …]: 50 to 75%; for RYPDNLKHLYL [peptide SEQ ID No 280 …]: over 75%; for TYIKPISKL [peptide SEQ ID No 273 …]: 50 to 75%. The same measure for SYALLTYMI [peptide SEQ ID No 192 …]: over 75%; for KYMVYPQTF [peptide SEQ ID No 267 …]: over 75%. For the molecule GFFIFNERF [peptide SEQ ID No 190 …], the peptide exchange yield lay in the range of 50 to 75%.
